# Test results reported in patent US20190345485A1.
# Biological target: MCR2(OVA)
# Assay: cell-based or functional assay
substance,measurement,value
OT-II TCR,NFAT-activation triggered by a T-cell population holding 1% peptide-specific CD4+ T-cells (% of the maximal NFAT-activation),50
